Tests used:
SOG1NAC (WT NAC domain) [1] = target: T1, SOG1NAC (WT NAC domain) (Arabidopsis thaliana, UniProt Q6NQK2 58-211); assay: ITC
T1 sequence: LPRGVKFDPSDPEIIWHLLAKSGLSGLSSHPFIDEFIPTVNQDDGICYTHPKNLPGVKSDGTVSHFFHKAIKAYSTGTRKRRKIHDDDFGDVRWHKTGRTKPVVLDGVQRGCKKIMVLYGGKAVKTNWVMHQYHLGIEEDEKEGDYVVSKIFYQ

SOG1NAC-RKRR = target: T2, SOG1NAC-RKRR (Arabidopsis thaliana, UniProt Q6NQK2 58-211, R136A;K137A;R138A;R139A); assay: EMSA
T2 sequence: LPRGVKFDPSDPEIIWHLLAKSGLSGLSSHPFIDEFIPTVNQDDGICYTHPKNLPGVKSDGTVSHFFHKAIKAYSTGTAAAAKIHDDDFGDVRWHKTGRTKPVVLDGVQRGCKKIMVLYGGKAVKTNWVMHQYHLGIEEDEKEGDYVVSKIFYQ

SOG1NAC-DNAstrand = target: T3, SOG1NAC-DNAstrand (Arabidopsis thaliana, UniProt Q6NQK2 58-211, R150S;H152S;T154A;R156S;T157S); assay: EMSA
T3 sequence: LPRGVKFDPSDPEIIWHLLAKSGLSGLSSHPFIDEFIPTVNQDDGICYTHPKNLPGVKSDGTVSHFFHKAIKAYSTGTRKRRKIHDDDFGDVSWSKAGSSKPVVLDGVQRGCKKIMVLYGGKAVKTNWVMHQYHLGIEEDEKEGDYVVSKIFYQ

SOG1NAC (WT NAC domain) [2] = target: T1, SOG1NAC (WT NAC domain); assay: EMSA
SOG1NAC (WT NAC domain) [3] = target: T1, SOG1NAC (WT NAC domain); assay: EMSA; remark: listed apart in the source
SOG1NAC (WT NAC domain) [4] = target: T1, SOG1NAC (WT NAC domain); assay: EMSA; remark: listed apart in the source
SOG1NAC (WT NAC domain) [5] = target: T1, SOG1NAC (WT NAC domain); assay: EMSA; remark: listed apart in the source
SOG1NAC (WT NAC domain) [6] = target: T1, SOG1NAC (WT NAC domain); assay: EMSA; remark: listed apart in the source
SOG1NAC (WT NAC domain) [7] = target: T1, SOG1NAC (WT NAC domain); assay: EMSA; remark: listed apart in the source
SOG1NAC (WT NAC domain) [8] = target: T1, SOG1NAC (WT NAC domain); assay: ITC; remark: listed apart in the source

B1: pBRCA1 31 bp (dsDNA)
DNA 1: TCAAAGAGGCTTCCCTTGAAAGCTTTACAGA
DNA 2: TCTGTAAAGCTTTCAAGGGAAGCCTCTTTGA
Kd (SOG1NAC (WT NAC domain) [1]): 139 nM
binding result (SOG1NAC-RKRR): no binding
binding result (SOG1NAC-DNAstrand): no binding

B2: Designed oligo 1 (two pBRCA1 sites) (dsDNA)
DNA 1: TCTGTAAAGCTTTCAAGGGAAGCCTCTTTGACGTAACAGAAACCCCGGAGTAAGCTCCCGTGGGTCTGTAAAGCTTTCAAGGGAAGCCTCTTTGA
DNA 2: TCAAAGAGGCTTCCCTTGAAAGCTTTACAGACCCACGGGAGCTTACTCCGGGGTTTCTGTTACGTCAAAGAGGCTTCCCTTGAAAGCTTTACAGA
binding result (SOG1NAC (WT NAC domain) [2]): binds

B3: Designed oligo 2 (one pBRCA1 site) (dsDNA)
DNA 1: TCTGTAAAGCTTTCAAGGGAAGCCTCTTTGACGTAACAGAAACCCCGGAGTAAGCTCCCGTGGGGTCGGCGATGGTGGTAACTAATTATGTTCCT
DNA 2: AGGAACATAATTAGTTACCACCATCGCCGACCCCACGGGAGCTTACTCCGGGGTTTCTGTTACGTCAAAGAGGCTTCCCTTGAAAGCTTTACAGA
binding result (SOG1NAC (WT NAC domain) [3]): binds

B4: pSMR5 97 bp (dsDNA)
DNA 1: TACCTAGCAACTTCCAGAACAAGCTACGGTCACTTCCAAAACTAGTGTAATAAAGAAGCAATCTAATTAAGAACCTTATTAGGAAAGTGCGAGAGAG
DNA 2: CTCTCTCGCACTTTCCTAATAAGGTTCTTAATTAGATTGCTTCTTTATTACACTAGTTTTGGAAGTGACCGTAGCTTGTTCTGGAAGTTGCTAGGTA
binding result (SOG1NAC (WT NAC domain) [4]): binds

B5: pSMR5 site 1 (RC) (dsDNA)
DNA 1: TGACCGTAGCTTGTTCTGGAAGTTGCTAGGT
DNA 2: ACCTAGCAACTTCCAGAACAAGCTACGGTCA
binding result (SOG1NAC (WT NAC domain) [5]): binds

B6: pSMR5 site 2 (RC) (dsDNA)
DNA 1: TTAGATTGCTTCTTTATTACACTAGTTTTGG
DNA 2: CCAAAACTAGTGTAATAAAGAAGCAATCTAA
binding result (SOG1NAC (WT NAC domain) [5]): binds

B7: pSMR5 site 3 (dsDNA)
DNA 1: ATTAAGAACCTTATTAGGAAAGTGCGAGAGA
DNA 2: TCTCTCGCACTTTCCTAATAAGGTTCTTAAT
binding result (SOG1NAC (WT NAC domain) [6]): no binding

B8: pXRI1 31 bp (dsDNA)
DNA 1: ATAAAAAGCTTCTCTTGCAATTCTCTCTTCC
DNA 2: GGAAGAGAGAATTGCAAGAGAAGCTTTTTAT
binding result (SOG1NAC (WT NAC domain) [7]): binds

B9: non-target 31 bp (random) (dsDNA)
DNA 1: GTCGGCGATGGTGGTAACTAATTATGTTCCT
DNA 2: AGGAACATAATTAGTTACCACCATCGCCGAC
binding result (SOG1NAC (WT NAC domain) [8]): no binding

B10: pTKa1 31 bp (dsDNA)
DNA 1: TGACAAATCTTCTCCAGCAATTTTCTTCCTT
DNA 2: AAGGAAGAAAATTGCTGGAGAAGATTTGTCA
binding result (SOG1NAC (WT NAC domain) [7]): binds

B11: pBRCA1 49 bp (dsDNA)
DNA 1: GCGTGTCCTTCAAAGAGGCTTCCCTTGAAAGCTTTACAGACTAAATAAA
DNA 2: TTTATTTAGTCTGTAAAGCTTTCAAGGGAAGCCTCTTTGAAGGACACGC
binding result (SOG1NAC (WT NAC domain) [5]): binds

Reference: publication PMC12817079
